# Biological target: TmFtsH_(184,513), double Cys variant of His6-(Δtm)TmFtsH(147–610) (Thermotoga maritima) (UniProt Q9WZ49)
substance,measurement,value
"TmFtsH_(184,513), double Cys variant of His6-(Δtm)TmFtsH(147–610) (from UniProt Q9WZ49 147-610) (enzyme)",Kd,400 nM
